Experimental data published in the supplement of paper PMC10567573.
± gives the standard deviation.

Assay: protein stability index of a GFP-peptide fusion (GPS, HEK-293T) (PSI 1-6); higher = more stable
Settings: c terminus: a fixed tail appended
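Further: 24-mer peptide tiles fused after GFP, lentivirally expressed, FACS-sorted into six equal bins by GFP/DsRed ratio, decoded by Illumina sequencing, PSI is the read-weighted mean bin number.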

Sequence	protein stability index (treatment: DMSO)	protein stability index (treatment: MLN4924 1 uM, 8 h)
GYFAFMLFRKRLGSMILAFRPRPN [GDAP1]	2.69 ± 0.79	2.37 ± 0.57
PDNWFCYPCIPNHELVWAKMKGFG [ZMYND11]	2.43 ± 0.37	2.12 ± 0.18
SLKAKVSDNMSHLMVDFAQERQML [FSD1]	3.33 ± 0.22	3.31 ± 0.31
NGFPDSTGDPLPEISKDNSCKENC [EDARADD]	5.2 ± 0.24	5.17 ± 0.48
EMSKDANFGLRLVVQRCSGQKWMI [GALNT9]	2.2 ± 0.65	2.85 ± 1
RTLSAFLCLGGLACLIVMFLPEKK [SLC22A15]	3.25 ± 0.42	2.64 ± 0.36
SGEELHELFHTIDTHNTNNLDTEE [NECAB1]	5.12 ± 0.6	5.08 ± 0.68
ASPRRLSNVSSSGSINLLESPQLA [MAP2]	4.2 ± 0.2	4.12 ± 0.15
RALQERLGQQQRDMRRDEEGSLCA [FBF1]	4.95 ± 0.36	5.03 ± 0.32
VLQENYTHLPKADIFALALTVVCA [WEE1]	2.69 ± 0.85	2.38 ± 0.27
KAIKQKLWEALCSQGAISEGAQRD [C22orf31]	2.72 ± 0.27	2.85 ± 0.065
SDSGLSLDSSHSPSSLSSSEGSSS [NFE2L1]	5.41 ± 0.23	5.34 ± 0.17
RPRRYVQPPEMIGPMRPEQFSDEV [GAGE1]	3.86 ± 0.26	4.41 ± 0.32
NPVQPIGPQTPKACDSKLTFDAIT [MMP1]	4.21 ± 0.22	4.23 ± 0.22
HQRIPQSVRILGSLVAILLVFLIT [SLC29A1]	2.1 ± 0.37	2.33 ± 0.25
LKSLIRLVKHWYQNCKKKLGKLPP [OAS1]	2.94 ± 0.36	3.02 ± 0.25
FHNLRNTLDGYGIHPKSIDLDNYF [NFE2L1]	2.31 ± 0.44	2.07 ± 0.15
APMDAPRYQHGIAVIGNFLYVVGG [KLHL13]	2.18 ± 0.36	2.25 ± 0.25
EMTPEKFSVLMEKLCKKGLAATTS [FANCE]	2.75 ± 0.57	2.88 ± 0.36
DLVDLFDGTSQSTGGSADLFGGFA [CLINT1]	2.69 ± 0.23	3.2 ± 0.32
NYFVTMFDDYSATLPLTLIVILEN [SLC6A17]	3.05 ± 0.61	2.85 ± 0.62
PLSPAFFGEDGIFRHDRLRFRDFV [PBXIP1]	2.77 ± 0.16	2.91 ± 0.39
EFPYRMNHILECEFYLLELMDCCL [CCNC]	2.68 ± 0.31	2.84 ± 0.6

Sequence	protein stability index (treatment: DMSO)	protein stability index (treatment: MLN4924 1 uM, 8 h)
QTPILEGRSGPGCAVLDDSIYLVG [KLHL14]	2.7 ± 0.23	2.63 ± 0.28
LGRMFGSGREHNFTRPNEKGEYEV [BTBD10]	3.95 ± 0.08	3.98 ± 0.25
MKCQSYCEPPSYRPMHHEDFKEDL [CDC25A]	3.77 ± 0.16	4.02 ± 0.23
SYLMLVTVMMWPLAVYHRLWDRAY [RETREG3]	3.62 ± 0.18	2.62 ± 0.6
RLDYLNLKGARLTVEQGCQILDSL [FBXO39]	3.25 ± 0.088	3.54 ± 0.22
LKATFSGFTKEQQRLGIPKDPRQW [ETS1]	2.75 ± 0.25	2.82 ± 0.36
ITDSYPVVKRREGPAGHSKGELAP [POLD4]	3.42 ± 0.47	4.21 ± 0.45
EWNQKRARKAMRNGISPIIIDNTN [N4BP2L1]	2.65 ± 0.16	3.02 ± 0.55
RPTYFEMKNEKLLSKASEPKYQLF [RNF180]	2.54 ± 0.28	2.78 ± 0.19
ACAQLATGAACRLVEAVLSGEVLN [HDAC6]	2.44 ± 0.53	2.65 ± 0.4
YEKFKLYLTIILILISFTCRFLLN [TMEM120A]	3.05 ± 0.21	2.91 ± 0.39
THKKCKEEVVSTLDAVQVLSGVSQ [FCHO1]	3.77 ± 0.23	3.64 ± 0.16
TIDDTISKFRRKDREDSPERCSDS [CLINT1]	5.5 ± 0.3	5.44 ± 0.3
EPITGWRKTVCHNGVLGLSRLLFF [LPCAT4]	2.57 ± 0.71	2.2 ± 0.37
MRRMVATWMLEVCEEQKCEEEVFP [CCND2]	2.9 ± 0.46	3.14 ± 0.045
SPFTNLLNGSSQPTTRNYPELNNN [CDC14A]	4.04 ± 0.1	4.26 ± 0.16
KMKGFGFWPAKVMQKEDNQVDVRF [ZMYND11]	3.11 ± 0.39	3.11 ± 0.34
VKNDRDRVGHKSIPMRNLRARPAK [SERPINB5]	3.98 ± 0.35	4.4 ± 0.11
LRAELQGHHAEKLPAGAGAPKAGL [TNFSF13B]	4.34 ± 0.32	4.45 ± 0.35
IDKGDIPDLTQAPSSLMETLEQHL [SNAP91]	4.11 ± 0.22	4.08 ± 0.33
LSKDHQEVETEGPESADTGDKSES [TOR1AIP2]	5.67 ± 0.18	5.59 ± 0.19
ADWLGLKDEDLDLFPASPTREAHR [FBF1]	4.77 ± 0.21	4.61 ± 0.12
QRALHKYSLMKRQMMSATAQNREP [SNX8]	3.24 ± 0.29	3.32 ± 0.18

Sequence	protein stability index (treatment: DMSO)	protein stability index (treatment: MLN4924 1 uM, 8 h)
PHYELCTLRGTGATADFADVADDF [NETO1]	4.69 ± 0.1	4.59 ± 0.25
PDSELSPCIPPGFRNLVADRVLNY [SPAG8]	3.18 ± 0.23	3.34 ± 0.33
MWLTPLHRAVASRSEEAVQVLIKH [ANKRD44]	2.29 ± 0.12	2.45 ± 0.18
EEPSNKRVRPLARVTSLANLISPV [NET1]	3.43 ± 0.47	3.44 ± 0.19
FLAAEQDIREEIRKVVQSLEQTAR [TSN]	2.57 ± 0.45	3.25 ± 0.64
HPDIFLPSEICDRLVNEYVELVNA [ZER1]	2.56 ± 0.17	2.97 ± 0.35
FEDLNKRKDTKEIYTHFTCATDTK [GNAI1]	4.57 ± 0.16	4.41 ± 0.42
EKPPSGTKEKKHQCDHCERCFYTR [PLAGL1]	3.87 ± 0.26	4.3 ± 0.62
LQSLDDTELRLLGRTHSACDALRT [RSAD1]	3.64 ± 0.2	3.85 ± 0.18
QGPGGDEDDDEEDTDKLLNSASDP [PSD2]	5.59 ± 0.26	5.54 ± 0.21
GSGPIQLWQFLLELLTDKSCQSFI [ETS1]	1.88 ± 0.67	2.94 ± 1.2
RIHVGKKYGDIPRGIFVVRGENVV [LSM1]	2.37 ± 0.17	2.24 ± 0.15
RNLRTQQEIEDKMKGFSFKEDTLL [C8orf76]	4.11 ± 0.12	4.16 ± 0.19
KMLGNPSRLPAKCPGKGAWSIPWK [FKBP8]	2.08 ± 0.26	2.25 ± 0.23
TREAHRESSVPVTPSVPPPASQHS [FBF1]	4.94 ± 0.099	5.07 ± 0.12
ELHIHRLRYLSSIWNILDLVVILL [PKD2L1]	2.28 ± 0.33	2.54 ± 0.28
QFSDEVEPATPEEGEPATQRQDPA [GAGE1]	5.6 ± 0.11	5.57 ± 0.096
RFGQTIQSFTLRGDHRSPASAQKF [NET1]	3.14 ± 0.27	3.27 ± 0.32
GHAAPGTDAGKAFCMFYAVLGIPL [KCNK9]	2.81 ± 0.19	2.84 ± 0.39
IQKNYECANFGDQGITMGCWDMYR [LOXL2]	2.06 ± 0.45	2.13 ± 0.25
IKSIVEASKGCQLGKTEQGFENMD [TRIM63]	4.54 ± 0.31	4.38 ± 0.33
SALTFLRVDQDKDKDCSLDCAGSP [SMOC2]	4.92 ± 0.42	5 ± 0.088
MLAIITKMTLTQVSTWFANARRRL [IRX6]	2.29 ± 0.49	2.26 ± 0.27

Sequence	protein stability index (treatment: DMSO)	protein stability index (treatment: MLN4924 1 uM, 8 h)
HPLPTVIIVNLLWFIHLVFVVLAF [TMEM192]	3.37 ± 0.063	3.02 ± 0.7
WKDIIHNPQALSPQFTGILQLLQS [INTS3]	2.11 ± 0.34	2.14 ± 0.23
GTSTLLVWVGVIRYLTFFHNYNIL [MCOLN1]	3.35 ± 0.16	2.99 ± 0.2
EELPCTCPLCTSDRGSCVSTTEGI [RHOBTB3]	4.53 ± 0.22	4.62 ± 0.27
SGFLKEMACPYSVLISGDIKDRLK [FAM98B]	2.38 ± 0.49	2.52 ± 0.18
AYQEVFKPENISLRNKLRELCVKL [SMG5]	2.24 ± 0.23	2.17 ± 0.35
QFALTNGDPLNCHSYLSGYISLLL [NR2F2]	2.57 ± 0.57	2.28 ± 0.3
ETAVEGDPSGVSGATVGRKSRRSR [C18orf25]	5.484 ± 0.04	5.5 ± 0.25
RCYYYEDTISTIKSVAWEGGACPA [NCF4]	2.31 ± 0.21	2.43 ± 0.24
DYHLLHPVENIPEIILYWKHSTIF [SLC25A25]	2.71 ± 0.46	2.76 ± 0.63
ALEKLRSEMEEEKRQAVNKAVANM [ZMYND11]	4.42 ± 0.38	4.34 ± 0.36
IQDLCEMLGKYGSSLEFTELLTLV [CASP6]	2.34 ± 0.34	2.15 ± 0.26
VRKREAPAPEAESKQTEKDPGVQE [EFHC1]	5.47 ± 0.27	5.61 ± 0.34
LAQIAEVLEMFDLRMMVENIMNKE [RHOBTB1]	2.54 ± 0.35	2.22 ± 0.12
PLCNFNVIESFTELSRIVLMRHGM [RAB40C]	2.94 ± 0.45	2.73 ± 0.41
SGCDKEALLTGGGSENRNHRLLNM [RNF180]	3.58 ± 0.28	3.86 ± 0.29
EGSGHSTGEDSAFQEPDSPLPPAR [WEE1]	5.48 ± 0.14	5.52 ± 0.13
IRTSERVTLIVDNTRFVVDPSIFT [BTBD10]	2.35 ± 0.41	2.36 ± 0.45
NAEMKSAMRKLWSKKVSLAGKWLY [OR4A15]	3.85 ± 0.63	2.8 ± 0.85
GKGSIKELFPTGKQLEPLVAPLAD [VPS39]	4.08 ± 0.26	4.08 ± 0.11
